# Laboratory results taken from US20150132821, “Systems and Methods for Improving Nuclease Specificity and Activity” (Georgia Tech Research Corporation, published 2015).
# T1: S-05 (S5) NK-TALEN (synthetic)
# T1 chain: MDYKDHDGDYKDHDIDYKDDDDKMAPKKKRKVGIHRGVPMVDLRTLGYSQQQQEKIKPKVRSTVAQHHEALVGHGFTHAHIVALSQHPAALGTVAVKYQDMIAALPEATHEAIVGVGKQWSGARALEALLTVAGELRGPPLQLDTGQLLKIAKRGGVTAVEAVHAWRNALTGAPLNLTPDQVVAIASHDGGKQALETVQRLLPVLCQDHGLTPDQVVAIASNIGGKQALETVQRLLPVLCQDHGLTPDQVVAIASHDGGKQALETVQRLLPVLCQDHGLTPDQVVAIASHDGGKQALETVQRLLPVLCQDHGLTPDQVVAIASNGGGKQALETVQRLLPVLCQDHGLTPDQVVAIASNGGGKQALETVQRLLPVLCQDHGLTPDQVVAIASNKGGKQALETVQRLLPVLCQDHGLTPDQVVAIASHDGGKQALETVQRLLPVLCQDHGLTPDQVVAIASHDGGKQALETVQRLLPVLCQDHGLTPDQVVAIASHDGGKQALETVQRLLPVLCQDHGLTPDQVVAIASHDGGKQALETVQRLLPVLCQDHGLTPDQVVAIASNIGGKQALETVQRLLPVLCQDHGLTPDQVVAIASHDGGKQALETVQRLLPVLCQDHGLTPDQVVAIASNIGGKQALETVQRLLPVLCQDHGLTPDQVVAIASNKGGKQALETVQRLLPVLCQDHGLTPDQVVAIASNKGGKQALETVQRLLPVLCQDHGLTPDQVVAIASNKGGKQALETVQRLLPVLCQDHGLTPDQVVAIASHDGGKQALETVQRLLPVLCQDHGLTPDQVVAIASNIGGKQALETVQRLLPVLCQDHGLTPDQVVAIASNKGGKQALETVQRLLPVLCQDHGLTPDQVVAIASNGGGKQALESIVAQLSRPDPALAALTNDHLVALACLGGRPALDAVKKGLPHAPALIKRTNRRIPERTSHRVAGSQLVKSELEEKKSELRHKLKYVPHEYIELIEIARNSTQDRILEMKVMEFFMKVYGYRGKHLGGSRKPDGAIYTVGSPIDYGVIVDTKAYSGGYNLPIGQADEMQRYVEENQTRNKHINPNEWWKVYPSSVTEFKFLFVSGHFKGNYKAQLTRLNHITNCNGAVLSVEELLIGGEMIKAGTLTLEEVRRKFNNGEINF
# B1: S-05 half-site (dsDNA)
# DNA 1: CACCTTGCCCCACAGGGCAGT
# DNA 2: ACTGCCCTGTGGGGCAAGGTG
# Tests used:
# [1] = system: S-11 NK-TALEN (synthetic); assay: cell_activity; conditions: monomer SSA assay
# [2] = system: S-23 NK-TALEN (synthetic); assay: cell_activity; conditions: monomer SSA assay
# [3] = system: S-36 NK-TALEN (synthetic); assay: cell_activity; conditions: monomer SSA assay
# [4] = system: S-34 NK-TALEN (synthetic); assay: cell_activity; conditions: monomer SSA assay
# [5] = system: S-32 NK-TALEN (synthetic); assay: cell_activity; conditions: monomer SSA assay
# [6] = system: S-30 NK-TALEN (synthetic); assay: cell_activity; conditions: monomer SSA assay
# [7] = system: S-28 NK-TALEN (synthetic); assay: cell_activity; conditions: monomer SSA assay
# [8] = system: S-26 NK-TALEN (synthetic); assay: cell_activity; conditions: monomer SSA assay
# [9] = system: S-40 NK-TALEN (synthetic); assay: cell_activity; conditions: monomer SSA assay
# [10] = system: S-41 NK-TALEN (synthetic); assay: cell_activity; conditions: monomer SSA assay
# [11] = system: S-03 NK-TALEN (synthetic); assay: cell_activity; conditions: monomer SSA assay
# [12] = system: S-04 NK-TALEN (synthetic); assay: cell_activity; conditions: monomer SSA assay
# [13] = system: S-08 NK-TALEN (synthetic); assay: cell_activity; conditions: monomer SSA assay
# [14] = system: S-06 NK-TALEN (synthetic); assay: cell_activity; conditions: monomer SSA assay
# [15] = system: S-24 NK-TALEN (synthetic); assay: cell_activity; conditions: monomer SSA assay
# [16] = system: S-22 NK-TALEN (synthetic); assay: cell_activity; conditions: monomer SSA assay
# [17] = system: S-15 NK-TALEN (synthetic); assay: cell_activity; conditions: monomer SSA assay
# [18] = system: S-38 NK-TALEN (synthetic); assay: cell_activity; conditions: monomer SSA assay
# [19] = system: S-25 NK-TALEN (synthetic); assay: cell_activity; conditions: monomer SSA assay
# [20] = system: S-16 NK-TALEN (synthetic); assay: cell_activity; conditions: monomer SSA assay
# [21] = system: S-17 NK-TALEN (synthetic); assay: cell_activity; conditions: monomer SSA assay
# [22] = system: S-18 NK-TALEN (synthetic); assay: cell_activity; conditions: monomer SSA assay
# [23] = system: S-19 NK-TALEN (synthetic); assay: cell_activity; conditions: monomer SSA assay
# [24] = system: S-20 NK-TALEN (synthetic); assay: cell_activity; conditions: monomer SSA assay
# [25] = system: S-21 NK-TALEN (synthetic); assay: cell_activity; conditions: monomer SSA assay
# [26] = system: S-13 NK-TALEN (synthetic); assay: cell_activity; conditions: monomer SSA assay
# [27] = system: S-09 NK-TALEN (synthetic); assay: cell_activity; conditions: monomer SSA assay
# [28] = system: S-37 NK-TALEN (synthetic); assay: cell_activity; conditions: monomer SSA assay
# [29] = system: S-35 NK-TALEN (synthetic); assay: cell_activity; conditions: monomer SSA assay
# [30] = system: S-33 NK-TALEN (synthetic); assay: cell_activity; conditions: monomer SSA assay
# [31] = system: S-31 NK-TALEN (synthetic); assay: cell_activity; conditions: monomer SSA assay
# [32] = system: S-29 NK-TALEN (synthetic); assay: cell_activity; conditions: monomer SSA assay
# [33] = system: S-27 NK-TALEN (synthetic); assay: cell_activity; conditions: monomer SSA assay
# [34] = system: S-42 NK-TALEN (synthetic); assay: cell_activity; conditions: monomer SSA assay
# [35] = system: S-43 NK-TALEN (synthetic); assay: cell_activity; conditions: monomer SSA assay
# [36] = system: S-44 NK-TALEN (synthetic); assay: cell_activity; conditions: monomer SSA assay
# [37] = system: S-10 NK-TALEN (synthetic); assay: cell_activity; conditions: monomer SSA assay
# [38] = system: S-39 NK-TALEN (synthetic); assay: cell_activity; conditions: monomer SSA assay
# [39] = system: S-12 NK-TALEN (synthetic); assay: cell_activity; conditions: monomer SSA assay
# S-05 (S5) NK-TALEN = target: T1, S-05 (S5) NK-TALEN; assay: cell_activity; monomer SSA assay; conditions: tags: 3xFLAG, NLS, FokI
# Protocol: HEK293T cells (ATCC) were cultured in Dulbecco's Modified Eagle Medium (Sigma) supplemented with 10% FBS and 2 mM L-Glutamine. Cells were seeded 80,000 per well of a 24-well plate. After 4 h, cells were transfected with 200 ng of the TALEN plasmid (or 100 ng of each TALEN for hetero-dimeric pairs) and 10 ng of the corresponding SSA reporter plasmid using calcium phosphate transfection. Three control transfections were included: 1) 200 ng of an empty TALEN backbone and 10 ng of an SSA reporter plasmid, 2) 200 ng of an empty TALEN backbone and 10 ng of a pEGFP plasmid, and 3) 100 ng of each GFP-ZFN and 10 ng of an SSA reporter plasmid. Cells were harvested 48 h after transfection. The percentages of pEGFP-transfected samples expressing GFP were determined using an Accuri C6 flow cytometer, as an indication of transfection efficiency. Genomic DNA was isolated using QuickExtract DNA extraction solution (Epicentre) as described20. Sample were PCR amplified for 35 cycles (95° C., 30 s; 60° C., 30 s; 72° C., 60 s) in a 50 μl reaction that contains 2 μl of the extracted DNA, 2.5 μl of each 10 μM target region amplification primer (SSA-Cell-F4, 5′-[…] (SEQ ID NO: 183); SSA-Cell-R4, 5′-[…] (SEQ ID NO: 184)), and 25 μl of GoTaq green master mix (Promega). PCR reactions were then separated on 2% agarose gels and the percentages of SSA-repaired products were quantified using ImageJ.
molecule,measurement,setting,value
ACAAGACAGGTTTAAGGAGACCAAT (double strand) [S-11 half-site],activity,[1],1.5 % SSA
AGACCACCAGCAGCCT (double strand) [S-23 half-site],activity,[2],11.6 % SSA
ATCAGAAACCCAAGAGT (double strand) [S-36 half-site],activity,[3],7.3 % SSA
ATCAGAAACCCAAGAGTCT (double strand) [S-34 half-site],activity,[4],14.8 % SSA
ATCAGAAACCCAAGAGTCTT (double strand) [S-32 half-site],activity,[5],10.5 % SSA
ATCAGAAACCCAAGAGTCTTCT (double strand) [S-30 half-site],activity,[6],17.9 % SSA
ATCAGAAACCCAAGAGTCTTCTCT (double strand) [S-28 half-site],activity,[7],15.3 % SSA
ATCAGAAACCCAAGAGTCTTCTCTGT (double strand) [S-26 half-site],activity,[8],11.7 % SSA
ATTGCTTACATTTGCTTCTGACACAACT (double strand) [S-40 half-site],activity,[9],2.5 % SSA
ATTGCTTACATTTGCTTCTGACACAACTGT (double strand) [S-41 half-site],activity,[10],3.1 % SSA
CAAACAGACACCATGGTGCACCT (double strand) [S-03 half-site],activity,[11],4.9 % SSA
CAAACAGACACCATGGTGCACCTGA (double strand) [S-04 half-site],activity,[12],2.5 % SSA
CACCTTGCCCCACAGGGCAGTA (double strand) [S-08 half-site],activity,[13],1.9 % SSA
CACCTTGCCCCACAGGGCAGTAA (double strand) [S-06 half-site],activity,[14],5.3 % SSA
CCAAGGGTAGACCACCAGCAGCCT (double strand) [S-24 half-site],activity,[15],1.3 % SSA
CCACGTTCACCTTGCCCCACAGGGCAGT (double strand) [S-22 half-site],activity,[16],4.5 % SSA
CCTGTGGAGAAGTCTGCCGT (double strand) [S-15 half-site],activity,[17],3 % SSA
CTATTGCTTACATTTGCTTCTGACACAACT (double strand) [S-38 half-site],activity,[18],3.7 % SSA
CTCCACAGGAGTCAGGTGCACCAT (double strand) [S-25 half-site],activity,[19],11.1 % SSA
CTGATAGGCACTGACTCT (double strand) [S-16 half-site],activity,[20],30.9 % SSA
CTGATAGGCACTGACTCTCT (double strand) [S-17 half-site],activity,[21],29.2 % SSA
CTGATAGGCACTGACTCTCTCT (double strand) [S-18 half-site],activity,[22],26.2 % SSA
CTGATAGGCACTGACTCTCTCTGCCT (double strand) [S-19 half-site],activity,[23],17.2 % SSA
CTGATAGGCACTGACTCTCTCTGCCTAT (double strand) [S-20 half-site],activity,[24],16.6 % SSA
CTGATAGGCACTGACTCTCTCTGCCTATT (double strand) [S-21 half-site],activity,[25],21.8 % SSA
CTTGGGTTTCTGATAGGCACTGACTCTCT (double strand) [S-13 half-site],activity,[26],13 % SSA
GCCCCACAGGGCAGTAACGGCAGA (double strand) [S-09 half-site],activity,[27],6.2 % SSA
GCCTATCAGAAACCCAAGAGT (double strand) [S-37 half-site],activity,[28],4.8 % SSA
GCCTATCAGAAACCCAAGAGTCT (double strand) [S-35 half-site],activity,[29],8.1 % SSA
GCCTATCAGAAACCCAAGAGTCTT (double strand) [S-33 half-site],activity,[30],4.9 % SSA
GCCTATCAGAAACCCAAGAGTCTTCT (double strand) [S-31 half-site],activity,[31],9.7 % SSA
GCCTATCAGAAACCCAAGAGTCTTCTCT (double strand) [S-29 half-site],activity,[32],5.3 % SSA
GCCTATCAGAAACCCAAGAGTCTTCTCTGT (double strand) [S-27 half-site],activity,[33],3.5 % SSA
GCTTACATTTGCTTCTGACACAACT (double strand) [S-42 half-site],activity,[34],4.3 % SSA
GCTTACATTTGCTTCTGACACAACTGT (double strand) [S-43 half-site],activity,[35],4.1 % SSA
GCTTACATTTGCTTCTGACACAACTGTGT (double strand) [S-44 half-site],activity,[36],3.2 % SSA
GCTTACATTTGCTTCTGACACAACTGTGTT (double strand) [S-10 half-site],activity,[37],8.4 % SSA
GGGTTTCTGATAGGCACTGACTCTCTCT (double strand) [S-39 half-site],activity,[38],5 % SSA
TGCCCCACAGGGCAGT (double strand) [S-12 half-site],activity,[39],11 % SSA
B1,activity,S-05 (S5) NK-TALEN,6.1 % SSA
